The values that follow come from patent US20180193457A1 (University of Washington, published 2018).

For assay [1], the target named is T1, wild-type FimH adhesin variant of the uropathogenic E. coli strain J96 (FimH^wt) (uropathogenic E. coli strain J96, UniProt P08191 22-300).
T1 construct: mature; also called fimbrial FimH^wt; E. coli FimH
As to the kind of experiment: SPR2 (Analytical Biopharmacy Core), FimH^wt fimbriae on CM5 chip, mAb as analyte, 1:1 Langmuir model.

Assay [2] addresses T1, wild-type FimH adhesin variant of the …. Description: cell-based or functional assay.

B1: mAb926 (antibody, V domains shown)
VH: QVQLQQSGAELATPGASVKMSCKASGYTSTNYWIHWVKQRPGQGLEWIGYINPTSGYTEYNQNFKDKATLTADKSSSTAYMQLTSLTSEDSAVYYCARGVIRDFWGQGTTLTVSS
VL: DVLMTQTPLSLPVSLGDQASISCRSSQNIVHNNGNTYLEWYLQSPGQSPKLLIYKVSNRFSGVPDRFSGSGSGTDFTLKISRVEAEDLGVYYCFQGSHVPFTFGSGTKLEIK
notes: also called mA926; mAb296
For orientation: Kd means the free concentration of one partner at which half of the binding sites on the other are occupied at equilibrium, for simple one-to-one binding. Regarding B1, the equilibrium dissociation constant (Kd) in assay [1] worked out at 0.22 nM. The “half-maximal inhibitory concentration (IC50) of bacterial adhesion to mannosylated (yeast mannan) surfaces” value in assay [2] was determined as 0.4 nM.
